From US7435549 (MICROMET, dated 2008) come the findings set out here.

For test [1], the target named is T1, bifunctional CD80-anti-17-1A scFv construct, clone 3-1 (human, UniProt P33681 35-242).
T1 construct: extracellular domain; CHO culture supernatant; also called pEF-DHFR+CTI+CD80+scFv 17-1A clone 3-1; CD80-scFv-construct 3-1
Briefly: flow cytometry on 17-1A-transfected CHO cells, undiluted supernatant, anti-CD80 detection. Here is the method: (§1) FIG. 9.1: Binding studies of 17-1A specific bifunctional CD80-scFv-constructs on 17-1A transfected (filled lines) and untransfected CHO cells (broken lines) detected by flow cytometry. 5 ×10^5 cells were incubated in 50 μl undiluted cell-culture supernatant containing the corresponding bifunctional construct. Bound bifunctional CD80-scFv-constructs were detected by a monoclonal anti-CD80 antibody (Immunotech. Cat. No.: 1449) diluted 1:20 in 50 μl PBS. Incubation conditions were the same as described in FIG. 8.5. Bound CD80-antibody was finally detected by a fluorescein conjugated polyclonal Goat Anti-Mouse IgG+IgM (H+L) antibody diluted 1:100 in PBS. Incubation was again carried out for 30 minutes on ice. For the fixation of fluorescein-labeled cells 1% paraformaldehyd in PBS was used. As first negative control untransfected CHO was used. The second negative control contained 17-1A-transfected cells that were incubated with PBS instead of bifunctional CD80-scFv-constructs. Cells were analysed by flow cytometry on a FACS scan (Becton Dickenson).
(§2) For this purpose adherent untransfected and 17-1A-transfected CHO-cells were detached using PBS containing 0,05% Trypsine, respectively. 5 ×10^5 cells were incubated for 30 minutes on ice in 50 µl culture supernatant containing the corresponding bifunctional construct undiluted (FIG. 9.1). Bound bifunctional CD80-scFv-constructs were detected by a monoclonal anti-CD80 antibody (Immunotech. Cat. No: 1449) diluted 1:20 in 50 µl PBS. Incubation conditions were the same as above. Bound CD80-antibody was finally detected by a fluorescein conjugated polyclonal Goat Anti-Mouse IgG+IgM (H+L) antibody diluted 1:100 in PBS. Incubation was again carried out for 30 minutes on ice. For the fixation of fluorescein-labeled cells 1% paraformaldehyd in PBS was used.
In general terms: Flow cytometry measures light scatter and fluorescence of single cells or particles in a stream.

The target of test [2] is T2, bifunctional CD80-anti-17-1A scFv construct, clone 4-1 (human, UniProt P33681 35-242).
T2 construct: extracellular domain; CHO culture supernatant; also called pEF-DHFR+CTI+CD80+scFv 17-1A clone 4-1; CD80-scFv-construct 4-1
Described as above. Here is the method: as §1, §2

For test [3], the target named is T3, bifunctional CD80-anti-17-1A scFv construct, clone 5-10 (human, UniProt P33681 35-242).
T3 construct: extracellular domain; CHO culture supernatant; also called pEHDFR+CTI+CD80+scFv anti 17-1A 5-10; CD80-scFv-construct 5-10
The description is as above. On the procedure:
as §1, §2

The target of test [4] is T4, bifunctional CD80-anti-17-1A scFv construct, clone 5-3 (human, UniProt P33681 35-242).
T4 construct: extracellular domain; CHO culture supernatant; also called pEFDHFR+CTI+CD80+scFv anti 17-1A 5-3; CD80-scFv-construct 5-3
The test is described as above. On the procedure:
as §1, §2

Test [5] deals with T5, bifunctional CD80-anti-17-1A scFv construct, clone 4-7 (human, UniProt P33681 35-242).
T5 construct: extracellular domain; CHO culture supernatant; also called pEFDHFR+CTI+CD80+scFv anti 17-1A 4-7; CD80-scFv-construct 4-7
The description is as above. Here is the method:
as §1, §2

Test [6] has as its target T6, bifunctional CD80-anti-17-1A scFv construct, clone 4-4 (human, UniProt P33681 35-242).
T6 construct: extracellular domain; CHO culture supernatant; also called pEF-DHFR+CTI+CD80+scFv 17-1A clone 4-4; CD80-scFv-construct 4-4
The test is described as above. On the procedure:
as §1, §2

In test [7] the target is T7, bifunctional CD80-anti-17-1A scFv construct, clone 5-13 (human, UniProt P33681 35-242).
T7 construct: extracellular domain; CHO culture supernatant; also called pEF-DHFR+CTI+CD80+scFv 17-1A clone 5-13; CD80-scFv-construct 5-13
The test is described as above. Here is the method: as §1, §2

Test [8] deals with T8, bifunctional CD80-anti-17-1A scFv construct, clone 3-5 (human, UniProt P33681 35-242).
T8 construct: extracellular domain; CHO culture supernatant; also called pEF-DHFR+CTI+CD80+scFv 17-1A clone 3-5; CD80-scFv-construct 3-5
The test is described as above. On the procedure: as §1, §2

In test [9] the target is T9, CD80-VD4.5VK8 scFv(VH/VL) construct with short (Gly4Ser1)1 linker (human, UniProt P33681 35-242).
T9 construct: extracellular domain; Tested as CHO culture supernatant; also called bifunctional CD80-VD4.5VK8-scFv-construct; pEF-DHFR+CTI+CD80+scFv VD4.5VK8
Nature of the test: flow cytometry on 17-1A-transfected CHO cells, anti-CD80 detection. Here is the method: as §1, with “The second negative control contained 17-1A-transfected cells that were incubated with PBS instead of bifunctional CD80-scFv-constructs.” left out
For this purpose adherent untransfected and 17-1A-transfected CHO-cells were detached using PBS containing 0,05% Trypsine, respectively. […] Bound bifunctional CD80-scFv-constructs were detected by a monoclonal anti-CD80 antibody (Immunotech. Cat. No: 1449) diluted 1:20 in 50 µl PBS. […] Bound CD80-antibody was finally detected by a fluorescein conjugated polyclonal Goat Anti-Mouse IgG+IgM (H+L) antibody diluted 1:100 in PBS. […]

B1: transmembrane 17-1A antigen (complete amino acid sequence, GA733-2) on transfected CHO cells (other, UniProt P16422 24-314, looked up)
chain: QEECVCENYKLAVNCFVNNNRQCQCTSVGAQNTVICSKLAAKCLVMKAEMNGSKLGRRAKPEGALQNNDGLYDPDCDESGLFKAKQCNGTSMCWCVNTAGVRRTDKDTEITCSERVRTYWIIIELKHKAREKPYDSKSLRTALQKEITTRYQLDPKFITSILYENNVITIDLVQNSSQKTQNDVDIADVAYYFEKDVKGESLFHSKKMDLTVNGEQLDLDPGQTLIYYVDEKAPEFSMQGLKAGVIAVIVVVVIAVVAGIVVLVISRKKRMAKYEKAEIKEMGEMHRELNA
notes: whole, on cells; also called 17-1A-transfected CHO-cells
B1: the binding result in test [1], in test [2], in [3], in test [4], in test [5] and in [6] was “binds” in each case. Also, the figures for the binding result in [7], in [8] and in test [9] were “binds”, “binds” and “no binding (tested: undiluted culture supernatant)”, respectively.
